In paper PMC4986892 (RNA, 2016):
Values belong to the binder of their own block, whether it stands above or below them.

Key:
[1] = target: T1, S. pombe Dcp1:Dcp2RD decapping complex (S. pombe, UniProt Q9P805;O13828); test: NMR titration
T1 sequence 1: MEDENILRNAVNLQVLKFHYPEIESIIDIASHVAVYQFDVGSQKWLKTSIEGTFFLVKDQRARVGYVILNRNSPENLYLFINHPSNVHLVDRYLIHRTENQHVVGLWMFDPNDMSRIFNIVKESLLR
T1 sequence 2: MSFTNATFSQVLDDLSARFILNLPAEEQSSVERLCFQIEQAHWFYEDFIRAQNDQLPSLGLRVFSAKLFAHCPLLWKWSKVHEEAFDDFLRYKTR

S. pombe Dcp1 = target: T2, S. pombe Dcp1 (S. pombe, UniProt Q9P805); test: NMR titration
T2 sequence: T1 sequence 1

[2] = target: T1, S. pombe Dcp1:Dcp2RD decapping complex; test: NMR titration; remark: listed apart in the source
[3] = target: T3, S. pombe Dcp1:Dcp2_(RD+CD) decapping complex (S. pombe, UniProt Q9P805;O13828); test: fluorescence polarisation
T3 sequence 1: T1 sequence 1
T3 sequence 2: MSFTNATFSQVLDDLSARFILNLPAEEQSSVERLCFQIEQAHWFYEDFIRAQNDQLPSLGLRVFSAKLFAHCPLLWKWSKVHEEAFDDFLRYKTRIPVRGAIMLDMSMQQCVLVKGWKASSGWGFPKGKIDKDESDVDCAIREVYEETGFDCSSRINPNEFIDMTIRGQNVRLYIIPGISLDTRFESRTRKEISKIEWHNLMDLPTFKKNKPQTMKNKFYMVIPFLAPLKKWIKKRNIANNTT

[4] = target: T1, S. pombe Dcp1:Dcp2RD decapping complex; test: fluorescence polarisation

Binder: VSQGTDSRLVTKPTSTFPSPPSPPSSSVWNKREH [S. pombe Xrn1 (1224–1257)]
- Kd [2]: 640000 ± 170000 nM

B3: S. pombe Edc1 (144–215) (domain or fragment)
chain: SFSSNSSSDTNSILYAGPTFTHSPAASNLPIPTFLHSPVSEKAEWQPPTGSVNSNMPFQFHQSSSVPSTPSE
- Kd [3]: 415 nM

Binder: APSDLATPQPSTFPQPPVESHSSFDIKQKILHLLNEGNEPKSPI (domain or fragment) [S. pombe Dcp2 C-terminal region (269–312)]
- Kd [2]: 310000 ± 110000 nM

B4: Fluorescently labeled S. pombe Edc1 1–221 (S183C) (domain or fragment)
chain: MQKDIGRRFQRNKKKINSKPGGAMVASSDVEFSLDGMSIMPQRDGNLQIPNFVKPKSTFATSNIGESNGKRNGDKVRGNRRSKSGHSSYAGSRISGGNSNSHLPSGVASAPAGLGIDKVAVGEVDSHLKSVSSYVSNSSGADRSFSSNSSSDTNSILYAGPTFTHSPAASNLPIPTFLHSPVCEKAEWQPPTGSVNSNMPFQFHQSSSVPSTPSEVAMGHN
modifications: 5-(iodoacetamido)-fluorescein on the cysteine introduced by S183C (labeling efficiency ~50%)
- Kd [4]: 143 nM
- Kd [3]: 250 nM

The next lines start with the values.

- binding result [1]: binds
Binder: SFSSNSSSDTNSILYAGPTFTHSPAASNLPIPTFLHSP [S. pombe Edc1 (144–181), as used for NMR]

- binding result [1]: binds
B1: S. pombe Xrn1 (1201–1328) (domain or fragment)
chain: TNPQFVVNTRAGKNRKTNVSANNVSQGTDSRLVTKPTSTFPSPPSPPSSSVWNKREHHPKPFSLHQVPPPESLIHKSKSKFSKGNHHSTNGTQSIRGRGGKRGKPLRSKELNRKHDHIVQPMGKLQIN

- binding result (S. pombe Dcp1): binds
B2: S. pombe Dcp2 C-terminal tail (267–350) (domain or fragment)
chain: STAPSDLATPQPSTFPQPPVESHSSFDIKQKILHLLNEGNEPKSPIQLPPVSNLPLNPPIQSSNSRLSHDNNSFDPFAYLGLDP

- binding result [1]: binds
Binder: GTEIQPIPPSIDPSLYVFP [S. pombe Dhh1 (401–419)]
